Four molecules from patent US20200055939A1 (Genentech, published 2020) can be followed below.

Broadly, the Kd is the concentration at which binding is half-saturated. Low values mean tighter binding, high ones weaker binding.

Like-named read-outs stand apart in the source and are kept apart here.

For test [1], the target named is T1, MICA008.His (human MICA*008 alpha 3 domain, His tagged) (human).
T1 construct: Also used for FPOP (expressed in CHO); also called huMICA*008 alpha 3-his; MICA*008 a3
T1 chain: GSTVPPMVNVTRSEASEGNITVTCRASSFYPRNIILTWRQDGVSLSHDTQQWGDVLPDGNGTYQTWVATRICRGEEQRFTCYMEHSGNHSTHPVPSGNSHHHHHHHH
The test can be described thus: ELISA, coated antigen. Background: In an ELISA, binding on a coated surface is turned into a signal by an enzyme label.

The target in test [2] is T2, MICA.008.a3.R202-S297.R202N mIgG2a.Glyco11 (human; mouse, UniProt Q29983 203-297, engineered N-linked glycosylation site R202N).
T2 construct: not shown: murine IgG2a Fc
T2 chain: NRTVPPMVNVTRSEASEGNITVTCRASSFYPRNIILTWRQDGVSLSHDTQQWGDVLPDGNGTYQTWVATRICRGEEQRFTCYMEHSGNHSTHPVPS
The test can be described thus: ELISA, coated variant.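 Also: ELISA with plates coated at 2 ug/ml with MICA*008 alpha 3 glycosylation variants as murine IgG2a Fc fusions, antibody binding detected by HRP anti-human IgG Fc and TMB absorbance.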

Test [3] deals with T3, MICA.008.a3.T204-S297.E215N.mIgG2a.Glyco12 (human; mouse, UniProt Q29983 204-297, engineered N-linked glycosylation site E215N).
T3 construct: not shown: murine IgG2a Fc
T3 chain: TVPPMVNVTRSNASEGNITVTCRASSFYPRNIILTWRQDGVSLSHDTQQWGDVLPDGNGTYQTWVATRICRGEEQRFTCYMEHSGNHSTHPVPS
In words: ELISA, coated variant.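 Also: ELISA with plates coated at 2 ug/ml with MICA*008 alpha 3 glycosylation variants as murine IgG2a Fc fusions, antibody binding detected by HRP anti-human IgG Fc and TMB absorbance.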

The target in test [4] is T4, MICA.008.a3.T204-S297.I236T.mIgG2a.Glyco13 (human; mouse, UniProt Q29983 204-297, engineered N-linked glycosylation site created by I236T).
T4 construct: not shown: murine IgG2a Fc
T4 chain: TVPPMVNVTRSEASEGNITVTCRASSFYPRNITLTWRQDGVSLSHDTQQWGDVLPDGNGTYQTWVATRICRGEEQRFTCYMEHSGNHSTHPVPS
The test can be described thus: ELISA, coated variant.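 Also: ELISA with plates coated at 2 ug/ml with MICA*008 alpha 3 glycosylation variants as murine IgG2a Fc fusions, antibody binding detected by HRP anti-human IgG Fc and TMB absorbance.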

In test [5] the target is T5, MICA.008.a3.T204-S297.G243N.mIgG2a.Glyco14 (human; mouse, UniProt Q29983 204-297, engineered N-linked glycosylation site G243N).
T5 construct: not shown: murine IgG2a Fc
T5 chain: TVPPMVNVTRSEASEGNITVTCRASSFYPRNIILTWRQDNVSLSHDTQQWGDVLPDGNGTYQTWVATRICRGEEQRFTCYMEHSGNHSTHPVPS
The test can be described thus: ELISA, coated variant.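 Also: ELISA with plates coated at 2 ug/ml with MICA*008 alpha 3 glycosylation variants as murine IgG2a Fc fusions, antibody binding detected by HRP anti-human IgG Fc and TMB absorbance.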

Test [6] has as its target T6, MICA.008.a3.T204-S297.C-terminal insert of N298.G299.S300.mIgG2a.Glyco17 (human; mouse, UniProt Q29983 204-297, engineered N-linked glycosylation site at inserted N298).
T6 construct: not shown: murine IgG2a Fc
T6 chain: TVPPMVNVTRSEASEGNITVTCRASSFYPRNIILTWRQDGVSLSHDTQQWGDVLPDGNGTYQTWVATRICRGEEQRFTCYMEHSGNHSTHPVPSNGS
The test can be described thus: ELISA, coated variant.

Test [7] concerns the target T7, MICA002.His (human MICA*002 alpha 3 domain, His tagged) (human).
T7 construct: also called huMICA*002 alpha 3-his
T7 chain: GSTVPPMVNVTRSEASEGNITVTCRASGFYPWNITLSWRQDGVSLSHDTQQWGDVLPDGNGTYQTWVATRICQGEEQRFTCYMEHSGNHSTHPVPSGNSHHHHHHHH
The test can be described thus: SPR, antibody captured.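 Also: SPR with antibody held by surface-bound anti-Fc while His-tagged alpha three domains flow over, Kd derived by fitting a one-to-one binding model to sensograms.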 For orientation: SPR reads the build-up and loss of mass on a sensor chip optically.

The target in test [8] is T8, MICA004.His (human MICA*004 alpha 3 domain, His tagged) (human).
T8 construct: also called huMICA*004 alpha 3-his
T8 chain: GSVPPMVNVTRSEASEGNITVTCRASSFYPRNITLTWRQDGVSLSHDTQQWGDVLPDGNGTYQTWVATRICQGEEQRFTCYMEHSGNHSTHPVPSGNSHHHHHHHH
In words: SPR, antibody captured.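 Also: SPR with antibody held by surface-bound anti-Fc while His-tagged alpha three domains flow over, Kd derived by fitting a one-to-one binding model to sensograms.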

Test [9] concerns the target T9, MICB005.His (human MICB*005 alpha 3 domain, His tagged) (human).
T9 construct: also called huMICB*005 alpha 3-his
T9 chain: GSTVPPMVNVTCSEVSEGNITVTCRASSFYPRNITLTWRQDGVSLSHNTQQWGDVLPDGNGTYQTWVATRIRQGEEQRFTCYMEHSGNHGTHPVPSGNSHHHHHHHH
The test can be described thus: SPR, antibody captured.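 Also: SPR with antibody held by surface-bound anti-Fc while His-tagged alpha three domains flow over, Kd derived by fitting a one-to-one binding model to sensograms.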

The target in test [10] is T10, MICA*008 on MEL-JUSO cells (human, UniProt Q29983 24-317).
T10 chain: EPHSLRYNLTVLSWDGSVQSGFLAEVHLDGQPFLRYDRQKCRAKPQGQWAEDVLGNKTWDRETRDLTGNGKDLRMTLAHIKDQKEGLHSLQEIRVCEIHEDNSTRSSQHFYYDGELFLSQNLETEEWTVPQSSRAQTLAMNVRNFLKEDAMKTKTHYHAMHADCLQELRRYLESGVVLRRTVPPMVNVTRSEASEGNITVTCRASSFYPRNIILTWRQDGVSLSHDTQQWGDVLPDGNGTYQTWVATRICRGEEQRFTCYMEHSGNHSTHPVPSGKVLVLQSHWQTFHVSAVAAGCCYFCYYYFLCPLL
The test can be described thus: cell-based or functional assay.

The target of test [11] is T11, MICA*004 on HCC1534 cells (human, UniProt Q29983 24-383). In words: cell-based or functional assay.
The target of test [12] is T10, MICA*008 on MEL-JUSO cells. In words: cell-based or functional assay.
For test [13], the target named is T11, MICA*004 on HCC1534 cells. The test can be described thus: cell-based or functional assay. This is another data set of the same source.
Test [14] addresses T12, MICB*005 on HCC1534 cells (human, UniProt Q29980 23-383).
T12 sequence (looked up): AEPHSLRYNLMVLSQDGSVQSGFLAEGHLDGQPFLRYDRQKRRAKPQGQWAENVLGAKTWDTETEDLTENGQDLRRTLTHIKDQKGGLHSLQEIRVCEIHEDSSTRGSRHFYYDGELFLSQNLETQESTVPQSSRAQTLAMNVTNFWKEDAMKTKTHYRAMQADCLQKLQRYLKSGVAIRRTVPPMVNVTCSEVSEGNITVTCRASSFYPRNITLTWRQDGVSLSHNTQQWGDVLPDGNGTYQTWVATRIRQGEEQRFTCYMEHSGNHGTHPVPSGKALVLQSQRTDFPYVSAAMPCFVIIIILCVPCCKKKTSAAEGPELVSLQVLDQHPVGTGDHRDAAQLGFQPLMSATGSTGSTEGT
In words: cell-based or functional assay.

For test [15], the target named is T13, MILL1-MICA chimera.murine IgG2a Fc fusion (mouse MILL1 with grafted human MICA*008 …).
T13 construct: MICA*008 residues around NGTYQT on the 'back' and in the beta2 microglobulin interface grafted onto murine MILL1; also called MILL1-MICA*008 chimera
In words: ELISA, coated chimera.

For test [16], the target named is T14, MICA.008.a3.T204-S297.H248N.mIgG2a.Glyco15 (human; mouse, UniProt Q29983 204-297, engineered N-linked glycosylation site H248N).
T14 construct: not shown: murine IgG2a Fc
T14 chain: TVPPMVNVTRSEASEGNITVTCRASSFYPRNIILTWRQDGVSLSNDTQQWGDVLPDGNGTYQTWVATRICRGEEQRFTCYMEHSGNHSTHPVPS
In words: ELISA, coated variant.

Test [17] deals with T1, MICA008.His (human MICA*008 alpha 3 …). The test can be described thus: SPR, antibody captured.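 Also: SPR with antibody held by surface-bound anti-Fc while His-tagged alpha three domains flow over, Kd derived by fitting a one-to-one binding model to sensograms.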
The target in test [18] is T12, MICB*005 on HCC1534 cells. In words: cell-based or functional assay. The source holds these as a separate data set.
For test [19], the target named is T10, MICA*008 on MEL-JUSO cells. The test can be described thus: cell-based or functional assay.
Test [20] deals with T11, MICA*004 on HCC1534 cells. In words: cell-based or functional assay. The source holds these as a separate data set.
Test [21] addresses T12, MICB*005 on HCC1534 cells. The test can be described thus: cell-based or functional assay. The source holds these as a separate data set.
Test [22] concerns the target MICA*002 on cells (PANC-1; B16-MICA002) (human, UniProt Q29983 24-383). The test can be described thus: cell-based or functional assay.
Test [23] concerns the target T15, human MICA*008 alpha 3 domain, untagged (crystallography) (human, UniProt Q29983 204-297).
T15 construct: Made in T. ni cells with EndoH and kifunensine; N-terminal His6 tag removed with thrombin; also called MICA*008 α3 domain
T15 chain: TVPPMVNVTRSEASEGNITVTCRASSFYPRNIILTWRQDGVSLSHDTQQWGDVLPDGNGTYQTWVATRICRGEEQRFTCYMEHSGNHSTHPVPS
The test can be described thus: complex purified by size exclusion, X-ray structure. Background: SEC sorts molecules by how far they enter the pores of the column.

B1: 7A3.1.9 (antibody, V domains shown)
VH: QVQLKESGPGLVAPSQSLSITCTVSGFALTGSGVNWVRQPPGKGLEWLGMIWGDGNTDYNSALKSRLSISKDNSKSQIFLKMNSLQTDDTARYYCARGAHYGKRWYFDVWGAGTTVTVSS
VL: DIQMTQTTSSLSASLGDRVTISCSASQGINNYLNWYQQKPDGTVKLLIYYTSSLPSGVPSRFSGSGSGTDYSLTISNLEPEDIATYYCQQYSKLPPTFGGGTKVEIK
notes: Mouse hybridoma antibody; constant regions differ by assay
In the case of B1, the binding result in test [1], in test [2], in test [3], in test [4], in [5] and in test [6] was “binds” throughout. Moreover, the Kd was determined as 22 nM in test [7], 8.7 nM in test [8] and 16 nM in [9]. Further, the results for the “% max inhibition of shedding” value in test [10] and in test [11] were less than 10% and 50%, respectively. Further, the “EC50 of shedding inhibition” value in test [11] came out at 0.411 µg/mL.

B2: 1E6.1.3 (antibody, V domains shown)
VH: QVQLKESGPGLVAPSQSLSITCTVSGFSLTGSGVNWVRQPPGQGLEWLGMIWGDGNTDYNSALKSRLSISKDNSKSQVFLKMNSLQTDDTARYYCARGAHYGKRWYFDVWGAGTTVTVSS
VL: DIQMTQTTFSLSASLGDRVTISCSASQGINNYLNWYQQRPDGTVKLLIYYTSTLPSGVPSRFSGSGSGTDYSLTISNLEPEDIASYYCQQYSKLPPTFGGGTKVEIK
notes: as for B1
As to B2, the binding result in test [1], in [2], in test [3], in test [4], in test [5] and in test [6] was “binds” throughout. Also, the Kd in [7] came out at 24 nM; in test [8], 37 nM; in test [9] it was 18 nM. For the same molecule, the “% max inhibition of shedding” value in test [10] came to 20%; in test [11], 46%. Also, the “EC50 of shedding inhibition” value in test [11] came to 0.681 µg/mL.

B3: 13A9 (antibody, V domains shown)
VH: QVQLQQSGAELVRPGTSVKVSCKASGYAFTNYLIEWVKQRPGQGLEWIGAINPGSGATNYNEKFKDKARLTADKSSNTAYLQFSSLTSDDSAVYFCARFLGNYFDNWGQGATLTVSS
VL: DIQMTQSPASLSASVGETVTITCRASGNIHSYLAWYQQKQGKSPQLLVYYAETLADGVPSRFSGRGSGTQYSLKINSLQPEDFGSYFCQQFWTTPYTFGGGTKVEIK
notes: Mouse variable domains; constant regions differ by assay
For B3, the “maximum inhibition of shedding” value in test [12] is approximately 40%; in test [13], approximately 60%; in [14], 75%. Also, the binding result in test [15], in test [2], in test [3], in [4], in test [16] and in [6] was “binds” throughout. In addition, the Kd in test [17] is 0.94 nM; in [7], 0.5 nM; in test [8] it was 1.55 nM; in [9], 0.97 nM. Also, the results for the “% max inhibition of shedding” value in test [10], in [11] and in [18] were 47%, 66% and 79%, respectively. The “EC50 of shedding inhibition” value in [10] was determined as 0.489 µg/mL; in [11], 0.166 µg/mL; in test [18], 0.053 µg/mL; in test [19] it was 0.794 µg/mL; in test [20], 0.599 µg/mL; in test [21] it was 0.0349 µg/mL. For the same molecule, the “EC50 of shedding inhibition” value in test [22] was 0.418 µg/mL. Further, the “Max % Inhibition of shedding” value in test [19] was found to be 50%; in [20] it was 56%; in [21], 76%; in test [22], 66%.

B4: 13A9 Fab (Fab, V domains shown)
VH: QVQLQQSGAELVRPGTSVKVSCKASGYAFTNYLIEWVKQRPGQGLEWIGAINPGSGATNYNEKFKDKARLTADKSSNTAYLQFSSLTSDDSAVYFCARFLGNYFDNWGQGATLTVSS
VL: DIQMTQSPASLSASVGETVTITCRASGNIHSYLAWYQQKQGKSPQLLVYYAETLADGVPSRFSGRGSGTQYSLKINSLQPEDFGSYFCQQFWTTPYTFGGGTKVEIK
notes: Expressed in E. coli as chimera of murine variable and human constant domains; not shown: human IgG1 CH1 constant domain; human kappa CL constant domain
Consider B4, for which the binding result in [23] is given as “binds”.
